Source: PMC8246649 (Biochemistry, 2021)
No end group written: not given here. *: point of attachment. Myristoyl = CCCCCCCCCCCCCC(=O)*

B1: UNC119B, full-length, C-terminal His6 (natural protein)
chain: not shown
B2: FMNL1 peptide Myr-GNAAGSAEQPAGK-FAM (peptide)
peptide: Myristoyl-GNAAGSAEQPAGK(FAM)

Assays:
Assay in all cases: fluorescence polarisation
[1] = biological target: B1
[2] = biological target: B2
[3] = biological target: UNC119A, full-length, C-terminal His6 (human, UniProt Q13432 1-240)

Binder | Kd [1] | fold lower affinity than to UNC119A [2] | binding result [1] | binding result [3] | Kd [3]
GCGCSSHPEDK (not fully specified; N-terminal myristoyl on Gly; FAM on the C-terminal Lys) [LCK peptide Myr-GCGCSSHPEDK-FAM] | 0.37 nM | – | – | – | –
B1 | – | 9.5 fold | – | – | –
B2 | – | – | binds | binds | –
Myristoyl-GAAASRRRAK(FAM) [NSMF peptide Myr-GAAASRRRAK-FAM] | – | – | binds | binds | –
Myristoyl-GTASSLVSPAGGK(FAM) [NPHP3 peptide Myr-GTASSLVSPAGGK-FAM] | 0.17 nM | – | – | – | 0.84 nM
Myristoyl-GAGASAEEKHSRK(FAM) [GNAT1 peptide Myr-GAGASAEEKHSRK-FAM] | – | – | binds | binds | –
Myristoyl-GNAAAAKKGK(FAM) [PKA peptide Myr-GNAAAAKKGK-FAM] | – | – | binds | binds | –
Myristoyl-GCTVSAEDK(FAM) [GNAI2 peptide Myr-GCTVSAEDK-FAM] | – | – | binds | binds | –
Myristoyl-GGAVSAGEDNDDK(FAM) [PCMTD1 peptide Myr-GGAVSAGEDNDDK-FAM] | 72.6 nM | – | – | – | 5.25 nM
